One data set has as its system COc1cccc(CO)c1. The experiment in a line: purified protein. To be noted: apparent, FAD-reconstituted enzyme, 0.1 M sodium phosphate pH 6.0.
The target in data set [1] is T1, rAOx (recombinant alcohol oxidase, A. terreus MTCC6324) (Aspergillus terreus, UniProt I7FDJ2).
T1 construct: gene AOx; full-length ORF 2001 bp, 666 residues; pET28a(+), N- and C-terminal His6 kept; ~74-76 kDa; highly aggregated (~1000 nm)
T1 sequence (I7FDJ2 1-666): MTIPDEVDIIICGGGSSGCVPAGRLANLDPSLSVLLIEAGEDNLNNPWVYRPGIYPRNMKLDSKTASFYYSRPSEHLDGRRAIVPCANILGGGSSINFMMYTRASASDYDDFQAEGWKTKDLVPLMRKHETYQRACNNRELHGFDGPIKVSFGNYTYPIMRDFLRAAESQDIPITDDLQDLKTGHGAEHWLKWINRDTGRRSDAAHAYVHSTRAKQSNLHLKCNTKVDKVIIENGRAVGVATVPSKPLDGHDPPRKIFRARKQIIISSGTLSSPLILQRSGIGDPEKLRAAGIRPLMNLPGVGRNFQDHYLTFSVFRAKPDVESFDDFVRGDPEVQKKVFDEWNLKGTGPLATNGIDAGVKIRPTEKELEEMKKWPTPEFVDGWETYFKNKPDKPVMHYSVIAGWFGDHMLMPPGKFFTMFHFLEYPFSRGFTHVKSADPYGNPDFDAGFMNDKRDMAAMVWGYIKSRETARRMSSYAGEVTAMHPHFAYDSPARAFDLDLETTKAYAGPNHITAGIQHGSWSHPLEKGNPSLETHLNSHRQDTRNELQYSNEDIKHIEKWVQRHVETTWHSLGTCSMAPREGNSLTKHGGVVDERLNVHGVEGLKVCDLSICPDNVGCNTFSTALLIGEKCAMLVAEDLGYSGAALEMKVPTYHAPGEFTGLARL
The experiment in a line: FAD fluorescence quenching (ex […] nm, em […] nm) after reconstitution of apoenzyme. It counts as binding. The conditions noted are these: refolding of apo-rAOx with 0.08 mM FAD, pH 9.0, 16 °C, ~80 h.

Substrate in data set [2]: OCc1ccccc1
The experiment in a line: purified protein. It is filed as biochemical, Aspergillus terreus. The conditions noted are these: apparent, FAD-reconstituted enzyme, 0.1 M sodium phosphate pH 6.0.

Substrate in data set [3]: COc1ccc(CO)cc1OC
The experiment in a line: purified protein. It is filed as biochemical, Aspergillus terreus. To be noted: apparent, FAD-reconstituted enzyme, 0.1 M sodium phosphate pH 6.0.

As for “rAOx (recombinant alcohol oxidase, A. terreus MTCC6324) (Aspergillus terreus)”, in the data set on COc1cccc(CO)c1, the Km – broadly, the substrate concentration at which the rate is half of its maximum – was 2.88 mM; the kcat (commonly the number of substrate molecules converted per active site and unit of time at saturation) stood at 106 s⁻¹; the kcat/Km – broadly, the second-order rate constant that governs catalysis at low substrate concentration – stood at 36700 M⁻¹ s⁻¹.

In the case of `Cc1cc2nc3c(=O)[nH]c(=O)nc-3n(C[C@H](O)[C@H](O)[C@H](O)COP(=O)(O)OP(=O)(O)OC[C@H]3O[C@@H](n4cnc5c(N)ncnc54)[C@H](O)[C@@H]3O)c2cc1C` [FAD], in data set [1], the “FAD fluorescence quenching (ex 443 nm, em 527 nm) after reconstitution of apoenz” value is reported as “lower fluorescence intensity of the holoenzyme relative to that of free FAD inferred efficient incorporation”.

B1: rAOx (recombinant alcohol oxidase, A. terreus MTCC6324) (Aspergillus terreus) (protein)
chain: T1 sequence (I7FDJ2 1-666)
notes: full-length ORF 2001 bp, 666 residues; pET28a(+), N- and C-terminal His6 kept; ~74-76 kDa; highly aggregated (~1000 nm)
Regarding B1, in “purified protein [2]”, the Km turned out to be 10.80 mM, the kcat amounted to 2.16 s⁻¹ and the kcat/Km was 200 M⁻¹ s⁻¹. Besides, in “purified protein [3]”, the Km was 4.91 mM, the kcat is 115 s⁻¹ and the kcat/Km turned out to be 23500 M⁻¹ s⁻¹.

The values above are taken from paper PMC3994049, “Molecular Characterization and Expression of a Novel Alcohol Oxidase from Aspergillus terreus MTCC6324” (PLoS ONE, 2014).
